The results in this text go back to paper PMC10330345 (2023).

Sequences and labels used below:
B1: BTN2A1 271-527 (protein)
chain: KLQKEKKILSGEKEFERETREIALKELEKERVQKEEELQVKEKLQEEGRARRTFLHAVDVVLDPDTAHPDLFLSEDRRSVRRCPFRHLGESVPDNPERFDSQPCVLGRESFASGKHYWEVEVENVIEWTVGVCRDSVERKGEVLLIPQNGFWTLEMHKGQYRAVSSPDRILPLKESLCRVGVFLDYEAGDVSFYNMRDRSHIYTCPRSAFSVPVRPFFRLGCEDSPIFICPALTGANGVTVPEEGLTLHRVGTHQSL
B2: BTN2A1 271-527 (protein)
chain: KLQKEKKILSGEKEFERETREIALKELEKERVQKEEELQVKEKLQEELRARRTFLHAVDVVLDPDTAHPDLFLSEDRRSVRRCPFRHLGESVPDNPERFDSQPCVLGRESFASGKHYWEVEVENVIEWTVGVCRDSVERKGEVLLIPQNGFWTLEMHKGQYRAVSSPDRILPLKESLCRVGVFLDYEAGDVSFYNMRDRSHIYTCPRSAFSVPVRPFFRLGCEDSPIFICPALTGANGVTVPEEGLTLHRVGTHQSL
B3: BTN2A1 271-527 (protein)
chain: KLQKEKKILSGEKEFERETREIALKELEKERVQKEEELQVKEKLQEEGRWRRTFLHAVDVVLDPDTAHPDLFLSEDRRSVRRCPFRHLGESVPDNPERFDSQPCVLGRESFASGKHYWEVEVENVIEWTVGVCRDSVERKGEVLLIPQNGFWTLEMHKGQYRAVSSPDRILPLKESLCRVGVFLDYEAGDVSFYNMRDRSHIYTCPRSAFSVPVRPFFRLGCEDSPIFICPALTGANGVTVPEEGLTLHRVGTHQSL

The target of this test is BTN3A1 272-513 (Homo sapiens, UniProt O00481). Briefly: ITC.
Sequence of BTN3A1 272-513 (O00481 272-513): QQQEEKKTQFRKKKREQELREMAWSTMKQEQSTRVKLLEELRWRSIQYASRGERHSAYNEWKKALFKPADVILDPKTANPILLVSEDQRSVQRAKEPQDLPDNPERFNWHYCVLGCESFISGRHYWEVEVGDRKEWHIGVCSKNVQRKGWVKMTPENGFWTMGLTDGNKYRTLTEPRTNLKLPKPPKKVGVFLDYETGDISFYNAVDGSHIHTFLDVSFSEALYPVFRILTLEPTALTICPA
One may read the Kd as the concentration at which binding is half-saturated. Low readings indicate higher affinity, high ones lower affinity. Take B1: the dissociation constant (Kd) was found to be 710 nM.

As for B2, the Kd was 670 nM.

The molecule B3 had an equilibrium dissociation constant (Kd) of 1160 nM.
